# ± gives the standard deviation.
# Assay: protein stability index of a GFP-peptide fusion (GPS, HEK-293T) (PSI 1-6); higher = more stable
# [1] = treatment: DMSO, c terminus: a fixed tail appended
# [2] = treatment: MLN4924 1 uM, 8 h, c terminus: a fixed tail appended
# 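Note: 24-mer peptide tiles fused after GFP, lentivirally expressed, FACS-sorted into six equal bins by GFP/DsRed ratio, decoded by Illumina sequencing, PSI is the read-weighted mean bin number.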
Sequence,protein stability index [1],protein stability index [2],"protein stability index (treatment: DMSO, c terminus: native)","protein stability index (treatment: MLN4924 1 uM, 8 h, c terminus: native)"
EEQESVDTGEEEEGGDESDLSSES [EHMT1],5.57 ± 0.19,5.64 ± 0.16,,
LFSDDYGGKNCKKPAEYGYVSLGR [CEBPB],3.02 ± 0.31,3.2 ± 0.33,,
AIGALLVCYHYYADWFMSLGVGLL [TMEM40],3.087 ± 0.018,2.86 ± 0.62,,
DAINEEIRMIQEEKESTELRAEEI [PPFIA4],5.71 ± 0.15,5.51 ± 0.25,,
WAVVTMTTVGYGDMKPITVGGKIV [KCNA4],2.84 ± 0.38,2.72 ± 0.55,,
LYWRDIKQTGIVFGSFLLLLFSLT [RTN1],2.52 ± 0.22,2.35 ± 0.23,,
LFGHPGLDMELGPSQGQETNEVCE [ADAMTSL2],,5.29 ± 0.35,,
FVSFFNKWDAENAIQQMGGQWLGG [TIA1],2.69 ± 0.78,2.1 ± 0.59,,
ALAAATAAAAAAASAAAATAAFTT [SPAG8],3.04 ± 0.18,3.25 ± 0.18,,
PTIDTGYDSQPQDVLGIRQLERPL [TRAF3IP2],4.2 ± 0.28,4.4 ± 0.37,,
RALEEVEMKLQKNFLTQRENTIAG [C10orf62],3.48 ± 0.081,3.73 ± 0.33,,
IQKRNQRQSGDRRQLPPPPTPANE [WAS],5.29 ± 0.23,5.16 ± 0.21,,
DTGVAFELRDSSAYHVPNRTLASG [DNAAF3],3.87 ± 0.18,3.94 ± 0.054,,
KPASKPAGSSHTPSSQSSSGGGRD [ELOA2],5.47 ± 0.3,5.48 ± 0.19,,
DPLFGMCEKFLQEVDFFQRYFIAD [INTS4],2.6 ± 0.36,2.21 ± 0.35,,
KADLEVSNRHGHTCLMISCYKGHK [FEM1C],3.03 ± 0.36,2.91 ± 0.33,,
TNCWLIRELNLPFGGMKSSGIGRE [ALDH8A1],2.31 ± 0.41,2.29 ± 0.33,,
LSVIQMVAFLEQRASALLASCSKN [FBXO34],2.81 ± 0.35,2.71 ± 0.71,,
GARQQQVTTYLHKDYNNLWIIKKH [POMT2],2.49 ± 0.27,2.58 ± 0.35,,
VRAKGSQSGRHLQTHSNTIVVSLQ [STX5],2.48 ± 0.24,2.64 ± 0.075,,
ILVLKTDSQDLVASFRVTTGTSNT [RBBP5],2.2 ± 0.41,2.36 ± 0.53,,
RVRSLETENRRLESKIREHLEKKG [KRT18],4.44 ± 0.26,4.99 ± 0.18,,

Sequence,protein stability index [1],protein stability index [2],"protein stability index (treatment: DMSO, c terminus: native)","protein stability index (treatment: MLN4924 1 uM, 8 h, c terminus: native)"
FGEDGIFRHDRLRFRDFVDALEDS [PBXIP1],3.29 ± 0.32,3.58 ± 0.46,,
PEQQVDMHDMLLEELAPVGTAHIP [ZNF449],4.68 ± 0.28,4.8 ± 0.085,,
DSLLLHSSGQCRRRKRTYWNDSCG [WEE1],2.75 ± 0.29,2.82 ± 0.47,,
SSLLAPAKHLIASMLSKNPEDRPS [PLK2],3.2 ± 0.38,3.37 ± 0.18,,
PGQPLPGASVRGLHPVQKVILNYP [TRAF3IP2],3.55 ± 0.36,3.45 ± 0.52,,
FTVNPKPRVEYIDRPRCCLRGKEC [BTBD1],2.92 ± 0.11,3.23 ± 0.35,,
FKSLDKKNDGRIDAQEIMQSLRDL [SLC25A25],4 ± 0.2,3.92 ± 0.34,,
TPKLDCFLSGMEAAPRTLAAHPPL [TBX6],3.18 ± 0.17,3.48 ± 0.2,,
SKGWGRNYASIIRRDCMWSGFSAR [MYCL],2.35 ± 0.39,2.38 ± 0.31,,
EAMYHCCWNTSYCSIKCQQEHWHA [ZMYND11],2.3 ± 0.45,2.65 ± 0.43,,
PNYEFKLGKITFIRNSRPLVKKVE [UFD1],2.62 ± 0.5,2.77 ± 0.35,,
MDSGCWLFGGEFEDSVFEERPERR [C8orf76],4.06 ± 0.33,4.29 ± 0.27,,
YYRGFTLFQTHENREHLVMMEKIL [CLK3],2.31 ± 0.31,2.34 ± 0.37,,
LHPFFAGLTPEERSFHTSRNPSR [CLK3],,,2.72 ± 0.38,2.73 ± 0.52
PDGGRADEWACELRLFGRVLERAA [P3H4],2.46 ± 0.3,2.62 ± 0.38,,
IEDLRAQIFANTVDNARIVLQIDN [KRT18],2.6 ± 0.24,2.67 ± 0.35,,
RTADEATNTGPAGSSASTSPAPLD [DYRK1B],5.5 ± 0.28,5.34 ± 0.21,,
PDSFYELKSQPLPLRSSLPISLQA [TFE3],3.14 ± 0.15,3.26 ± 0.29,,
TYLENKGHRYPCFFNTLHVGGTIR [POP5],2.23 ± 0.14,2.19 ± 0.052,,
EADINGLRRVLDELTLSKTDLEMQ [KRT13],4.32 ± 0.079,4.26 ± 0.3,,
LPLAEREHVSRALCIHTGRELRCK [TRIB1],3.99 ± 0.32,3.93 ± 0.2,,
IGGVATVVCQPNEFIMPDSAVVGD [SEPHS2],3.72 ± 0.34,3.76 ± 0.44,,

Sequence,protein stability index [1],protein stability index [2],"protein stability index (treatment: DMSO, c terminus: native)","protein stability index (treatment: MLN4924 1 uM, 8 h, c terminus: native)"
VLSEGSPLTEQEESSPSHDRSRTV [SRPK2],5.35 ± 0.33,5.32 ± 0.25,,
LPSSGEGLAFFTFPNIASATKFKQ [HMOX1],2.75 ± 0.43,2.87 ± 0.18,,
TLLEAEPPHVLISRPSAPFTEASM [ESR2],3.31 ± 0.26,3.46 ± 0.29,,
APADPTAREGLAAPPRRLRSRKVS [FCHO1],5.12 ± 0.16,5.304 ± 0.013,,
GFRESDSAKPASLRLLQHTPSARR [C6orf223],4.49 ± 0.38,4.67 ± 0.3,,
PPPVESELALFQMSVLWLEHDRET [KLHL14],3.18 ± 0.085,3.25 ± 0.23,,
YISLLLRAEPYPTSRFGSQCMQPN [NR2F2],2.55 ± 0.5,2.43 ± 0.39,,
PGDPKWLDVIERDLHRQFPFHEMF [TBC1D10A],2.46 ± 0.31,2.57 ± 0.41,,
RHPPKVGDDSDLSEGFESDSSHDS [SMG5],5.46 ± 0.18,5.51 ± 0.21,,
PALCFAAAIFSLFFVPLSYLLMVT [TMEM175],3.03 ± 0.093,3.31 ± 0.21,,
ISQHGDPLLSNTFTETNNHWPQGP [EMID1],3.87 ± 0.29,4.08 ± 0.16,,
GQSLLKDEALAIAALELLPRELFP [PRAME],2.75 ± 0.41,2.84 ± 0.36,,
SEEKLALDNNASASGNATQTESGS [C10orf62],5.55 ± 0.15,5.6 ± 0.19,,
LEKEIEVLERGDSAPATAKENAAA [PALM],5.34 ± 0.2,5.62 ± 0.2,,
QAFQLPKLGALLSRCRKLVEYFQQ [ZBED1],2.52 ± 0.5,2.43 ± 0.29,,
IMLRSNESFTMDDMSWTCGNQDYK [VDR],2.86 ± 0.12,2.61 ± 0.27,,
PVLQSRTGLVYDQNMMNHCNLWDS [HDAC6],2.75 ± 0.41,2.93 ± 0.33,,
VLKVLSVCSSNKPAIVEAGGMQAL [CTNNB1],2.46 ± 0.24,2.46 ± 0.098,,
LPMWSNQTWNNSTWSNQTQNIQSW [NANOGP8],2.45 ± 0.38,2.56 ± 0.27,,
PGPQGSAGQRGEPGPKGDPGEKSH [EMID1],5.62 ± 0.4,5.49 ± 0.26,,
PCAGSTSLSHSPGCSSTQGNGRPG [LCOR],3.74 ± 0.42,4.16 ± 0.33,,
